Data on five proteins can be found in patent US20120014911.

This data set addresses T1, GST-IFNAR1 (wild type): bacterially expressed cytoplasmic domain of IFNAR1 fused with GST, P17181.
T1 chain: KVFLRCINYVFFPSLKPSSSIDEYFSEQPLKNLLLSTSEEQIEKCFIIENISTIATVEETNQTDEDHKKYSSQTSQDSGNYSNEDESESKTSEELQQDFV

B1: GST-tagged PKD2 (human, wild type) expressed in 293T cells and purified with glutathione beads (protein)
chain: MATAPSYPAGLPGSPGPGSPPPPGGLELQSPPPLLPQIPAPGSGVSFHIQIGLTREFVLLPAASELAHVKQLACSIVDQKFPECGFYGLYDKILLFKHDPTSANLLQLVRSSGDIQEGDLVEVVLSASATFEDFQIRPHALTVHSYRAPAFCDHCGEMLFGLVRQGLKCDGCGLNYHKRCAFSIPNNCSGARKRRLSSTSLASGHSVRLGTSESLPCTAEELSRSTTELLPRRPPSSSSSSSASSYTGRPIELDKMLLSKVKVPHTFLIHSYTRPTVCQACKKLLKGLFRQGLQCKDCKFNCHKRCATRVPNDCLGEALINGDVPMEEATDFSEADKSALMDESEDSGVIPGSHSENALHASEEEEGEGGKAQSSLGYIPLMRVVQSVRHTTRKSSTTLREGWVVHYSNKDTLRKRHYWRLDCKCITLFQNNTTNRYYKEIPLSEILTVESAQNFSLVPPGTNPHCFEIVTANATYFVGEMPGGTPGGPSGQGAEAARGWETAIRQALMPVILQDAPSAPGHAPHRQASLSISVSNSQIQENVDIATVYQIFPDEVLGSGQFGVVYGGKHRKTGRDVAVKVIDKLRFPTKQESQLRNEVAILQSLRHPGIVNLECMFETPEKVFVVMEKLHGDMLEMILSSEKGRLPERLTKFLITQILVALRHLHFKNIVHCDLKPENVLLASADPFPQVKLCDFGFARIIGEKSFRRSVVGTPAYLAPEVLLNQGYNRSLDMWSVGVIMYVSLSGTFPFNEDEDINDQIQNAAFMYPASPWSHISAGAIDLINNLLQVKMRKRYSVDKSLSHPWLQEYQTWLDLRELEGKMGERYITHESDDARWEQFAAEHPLPGSGLPTDRDLGGACPPQDHDMQGLAERISVL
B1: the “in vitro phosphorylation of GST-IFNAR1 on Ser535 (immunoblot with anti-pS535)” value (from here on “in vitro phosphorylation of GST-IFNAR1”) was “GST-tagged PKD2 expressed in 293T cells and purified by pull down with glutathione beads was capable of directly phosphorylating bacterially produced GST-IFNAR1 on Ser535 in vitro”.

B2: GST-tagged PKD3 (human) expressed in 293T cells (protein)
chain: MSANNSPPSAQKSVLPTAIPAVLPAASPCSSPKTGLSARLSNGSFSAPSLTNSRGSVHTVSFLLQIGLTRESVTIEAQELSLSAVKDLVCSIVYQKFPECGFFGMYDKILLFRHDMNSENILQLITSADEIHEGDLVEVVLSALATVEDFQIRPHTLYVHSYKAPTFCDYCGEMLWGLVRQGLKCEGCGLNYHKRCAFKIPNNCSGVRKRRLSNVSLPGPGLSVPRPLQPEYVALPSEESHVHQEPSKRIPSWSGRPIWMEKMVMCRVKVPHTFAVHSYTRPTICQYCKRLLKGLFRQGMQCKDCKFNCHKRCASKVPRDCLGEVTFNGEPSSLGTDTDIPMDIDNNDINSDSSRGLDDTEEPSPPEDKMFFLDPSDLDVERDEEAVKTISPSTSNNIPLMRVVQSIKHTKRKSSTMVKEGWMVHYTSRDNLRKRHYWRLDSKCLTLFQNESGSKYYKEIPLSEILRISSPRDFTNISQGSNPHCFEIITDTMVYFVGENNGDSSHNPVLAATGVGLDVAQSWEKAIRQALMPVTPQASVCTSPGQGKDHKDLSTSISVSNCQIQENVDISTVYQIFADEVLGSGQFGIVYGGKHRKTGRDVAIKVIDKMRFPTKQESQLRNEVAILQNLHHPGIVNLECMFETPERVFVVMEKLHGDMLEMILSSEKSRLPERITKFMVTQILVALRNLHFKNIVHCDLKPENVLLASAEPFPQVKLCDFGFARIIGEKSFRRSVVGTPAYLAPEVLRSKGYNRSLDMWSVGVIIYVSLSGTFPFNEDEDINDQIQNAAFMYPPNPWREISGEAIDLINNLLQVKMRKRYSVDKSLSHPWLQDYQTWLDLREFETRIGERYITHESDDARWEIHAYTHNLVYPKHFIMAPNPDDMEEDP
Regarding B2, the “in vitro phosphorylation of GST-IFNAR1” value is on record as “this outcome was not seen when either PKD1 or PKD3 were used as a source of kinase”.

B3: GST-tagged PKD1 (human) expressed in 293T cells (protein)
chain: MSAPPVLRPPSPLLPVAAAAAAAAAALVPGSGPGPAPFLAPVAAPVGGISFHLQIGLSREPVLLLQDSSGDYSLAHVREMACSIVDQKFPECGFYGMYDKILLFRHDPTSENILQLVKAASDIQEGDLIEVVLSASATFEDFQIRPHALFVHSYRAPAFCDHCGEMLWGLVRQGLKCEGCGLNYHKRCAFKIPNNCSGVRRRRLSNVSLTGVSTIRTSSAELSTSAPDEPLLQKSPSESFIGREKRSNSQSYIGRPIHLDKILMSKVKVPHTFVIHSYTRPTVCQYCKKLLKGLFRQGLQCKDCRFNCHKRCAPKVPNNCLGEVTINGDLLSPGAESDVVMEEGSDDNDSERNSGLMDDMEEAMVQDAEMAMAECQNDSGEMQDPDPDHEDANRTISPSTSNNIPLMRVVQSVKHTKRKSSTVMKEGWMVHYTSKDTLRKRHYWRLDSKCITLFQNDTGSRYYKEIPLSEILSLEPVKTSALIPNGANPHCFEITTANVVYYVGENVVNPSSPSPNNSVLTSGVGADVARMWEIAIQHALMPVIPKGSSVGTGTNLHRDISVSISVSNCQIQENVDISTVYQIFPDEVLGSGQFGIVYGGKHRKTGRDVAIKIIDKLRFPTKQESQLRNEVAILQNLHHPGVVNLECMFETPERVFVVMEKLHGDMLEMILSSEKGRLPEHITKFLITQILVALRHLHFKNIVHCDLKPENVLLASADPFPQVKLCDFGFARIIGEKSFRRSVVGTPAYLAPEVLRNKGYNRSLDMWSVGVIIYVSLSGTFPFNEDEDIHDQIQNAAFMYPPNPWKEISHEAIDLINNLLQVKMRKRYSVDKTLSHPWLQDYQTWLDLRELECKIGERYITHESDDLRWEKYAGEQGLQYPTHLINPSASHSDTPETEETEMKALGERVSIL
As for B3, the “in vitro phosphorylation of GST-IFNAR1” value is “this outcome was not seen when either PKD1 or PKD3 were used as a source of kinase”.

B4: Myc-tagged human CK1α immunopurified from 293T cells (protein)
chain: MASSSGSKAEFIVGGKYKLVRKIGSGSFGDIYLAINITNGEEVAVKLESQKARHPQLLYESKLYKILQGGVGIPHIRWYGQEKDYNVLVMDLLGPSLEDLFNFCSRRFTMKTVLMLADQMISRIEYVHTKNFIHRDIKPDNFLMGIGRHCNKLFLIDFGLAKKYRDNRTRQHIPYREDKNLTGTARYASINAHLGIEQSRRDDMESLGYVLMYFNRTSLPWQGLKAATKKQKYEKISEKKMSTPVEVLCKGFPAEFAMYLNYCRGLRFEEAPDYMYLRQLFRILFRTLNHQYDYTFDWTMLKQKAAQQAASSSGQGQQAQTPTGKQTDKTKSNMKGF
As to B4, the “immunokinase assay: phosphorylation of GST-IFNAR1 on Ser535” value was “both immunopurified (FIG. 55C) and bacterially produced CK1α (FIG. 55E, lane 6) also phosphorylated GST4FNAR1 on Ser535 in vitro”.

B5: Myc-tagged human CK1ε immunopurified from 293T cells (protein)
chain: MELRVGNKYRLGRKIGSGSFGDIYLGANIASGEEVAIKLECVKTKHPQLHIESKFYKMMQGGVGIPSIKWCGAEGDYNVMVMELLGPSLEDLFNFCSRKFSLKTVLLLADQMISRIEYIHSKNFIHRDVKPDNFLMGLGKKGNLVYIIDFGLAKKYRDARTHQHIPYRENKNLTGTARYASINTHLGIEQSRRDDLESLGYVLMYFNLGSLPWQGLKAATKRQKYERISEKKMSTPIEVLCKGYPSEFSTYLNFCRSLRFDDKPDYSYLRQLFRNLFHRQGFSYDYVFDWNMLKFGAARNPEDVDRERREHEREERMGQLRGSATRALPPGPPTGATANRLRSAAEPVASTPASRIQPAGNTSPRAISRVDRERKVSMRLHRGAPANVSSSDLTGRQEVSRIPASQTSVPFDHLGK
B5: the “immunokinase assay: phosphorylation of GST-IFNAR1 on Ser535” value is “immunopurified human CK18, CK1E, and protozoan parasite L-CK1 were active against IFNAR1S535 in the immunokinase assay in vitro”.
